Measured values reported in publication PMC4599338 (Microbial Cell Factories, 2015).
Numbering of substitutions follows the chain as printed.

How the values were obtained:
[1] = target: Staphylococcal enterotoxin B (Staphylococcus aureus, strain , UniProt P01552)
[2] = target: Vaccinia Virus, Western Reserve, L1R Protein with C-Terminal Histidine Tag, Recombinant from baculovirus (Vaccinia virus, Western Reserve, UniProt P07612); assay: SPR; […] (100 to 0 nM, […], dissociation 600 s; […]; Langmuir model; […]; details: both partners purified

B1: AC (VHH)
VHH: DVQLQASGGGLVQPGGSLRLTCAASGLIFGSYAMGWFRQAPGKAREFVAAISWSGGDTYADSVKGRFTISRDNAKNTVYLQMNSLEPEDTAVYSCAAVGSKYYISKDAKDYGYWGQGTQVTVSS
B1: binds [1].

B2: sdAb clone L1-G2 (VHH)
VHH: EVQLQASGGGLVQAGGSLRLSCTASGRAFSTTNMGWFRQAPGKEREFVTRVNWSGGVTSYADSVKGRFTLSRDNTKNTVYLQMDSLKPEDTAVYYCAGSTVWSTDRKHYNYWGQGTQVTVSS
In the case of B2, the Kd [2] is reported as 1.1 nM, the koff [2] is reported as 0.00063 s⁻¹ and the kon [2] is reported as 580000 M⁻¹ s⁻¹.

B3: sdAb clone L1-G2+neg (VHH)
VHH: B2 VHH with Q5V, A6E, A14D, G16D, T49C, L70C
B3 showed a Kd [2] of 3.3 nM, a koff [2] of 0.0014 s⁻¹ and a kon [2] of 420000 M⁻¹ s⁻¹.

B4: sdAb clone L1-G2+neg2 (VHH)
VHH: B2 VHH with Q5V, A6E, A14D, G16D, T49C, L70C, R72A
B4 gave a Kd [2] of 23 nM, a koff [2] of 0.013 s⁻¹ and a kon [2] of 540000 M⁻¹ s⁻¹.

B5: sdAb clone L1-G2+ (VHH)
VHH: B2 VHH with T49C, L70C
B5 showed a Kd [2] of 2.4 nM, a koff [2] of 0.0013 s⁻¹ and a kon [2] of 590000 M⁻¹ s⁻¹.
